The record followed here is the nanobody polyreactivity screen of Harvey et al. (2022).

A short description of the data set: yeast display, Sf9 membrane polyspecificity reagent, FACS + sequencing; frameworks hold sequencing errors. In a few lines: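 After 36–48 hours of galactose induction, yeast (Saccharomyces cerevisiae BJ5465) displaying a synthetic nanobody library were stained at 4 °C for 1 hour with 10% biotinylated, detergent-solubilized Sf9 membrane reagent. Streptavidin microbeads enriched the stained cells before FACS sorting into low and high (top ~1%) gates on anti-HA and streptavidin fluorescence. Each clone's polyreactivity label reflects its gate of origin.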
Turning to “QVKLVESGGGLVQAGGSLRLSCDASGFIFSLYAMGWYRQEHGKERDLVAAISKRGGSTNYADSVKGRFTISRDNAKNTVYLQMNSLKTEDTAVYYCAKARPVFLYDHWGQGTQLTVSS”, the “polyreactivity (PSR sort gate)” value is “high polyreactivity”.

As for “QVKLVESGGGLVQAGGSLRLTCAASGFTFTPNAMGWYRQAPGKEMELVAAITRSSGRTYYADSVKGRFTISRDNAKNTVYLQMNSLKPEDTAVYYCAARYASTPYARFGFWGQGTQVTVSS”, the “polyreactivity (PSR sort gate)” value was “high polyreactivity”.

With “QVKLVESGGGLVQAGGSLRLTCAASGRIFEDYVMGWYIKAPGKERELVAGISGSGGITYYADSVKGRFTISRDNAKNTVYLQMNSLKPEDTAVYYCATAAASHKYGYWGQGTQVTVSS”, the “polyreactivity (PSR sort gate)” value was “low polyreactivity”. The entry for “QVKLVESGGGLVQAGGSLSLSCAASGSTIGGYAMGWYRQAPGKERELVAAIRRSGDSTYYADSVKGRFTISRDNAKNTVYLKMNRLKPEDTAVYYCAASYLHYRYRGRDYWGQGTQVTVSS” is “low polyreactivity”; for “QVKLVESGGGLVQEGGSLRLSCAASGRIFGNYAMGWYRQAPGKERELVAAIDLSGDSTYYADSVKGRFTISRDNAKNTVYLQMNSLKPEDTAVYYCAATDWFSEYFWGQGTQVTVSS” it is “low polyreactivity”.

As to “QVKLVESGRGLVHAGGSLRLSSAASANTFPPNARGCYIPAPGKERELVSAISRSGVSTYYADSVKGRFTISRDNANNTVYLQMNSLKPEDTAVYYCAAPLIYTPLKYHYWGQGTQVTVSS”, the “polyreactivity (PSR sort gate)” value is given as “low polyreactivity”.

As for “QVKLVESGRGLVQAGGSLRLSCAASGITFRSYAMGWYINATGKERELVATLSSSGGNTNYADSVKGRFTISRDNAKNTVYLQMNSLKPEDTAVYYCAAELWRYYYVVPGRYDDWGQGTQVTVSS”, the “polyreactivity (PSR sort gate)” value is listed as “high polyreactivity”. The result for “QVKLVETGGGLVQAGGSLRLSCAASGSTFGLYAMGWYRQAPGKERELVAAITWRGGRTYYADSVKGRFTISRDNAKNTVDLQMNSLKPEDTAVNFCAKGYDYYVRRYYYWGQGTQVTVSS” reads “high polyreactivity”; that for “QVKRVESGGGLVHAGGSLRLSCPASGRTVAKYAMGGYRQEPGKARELVAAITSSGGITYYAESVQGRYTISRDNAKNIVYLQMNSLKREDTAFYYCAVKTFQVGTFRRYYYWGQGTQVTVSS”, “high polyreactivity”. With “QVKRVESGGVLVQAGGSLRLSCAASGFIFLLNDMGWYRQAHGKERDLVAAISRGGGSTYYADSVKGRFTISRDNAKNTVYLQMNSLKPEDTAVYYCAAKPGKTPLTGHRGPYDTGYGYCGQGTQVTVSS”, the “polyreactivity (PSR sort gate)” value is “low polyreactivity”. As to “QVLIEDSGGGLVQAGGSLRLSCAASGSIFYFYAMGWYRQAPGKERELVAAISYSVGSTYYADSVKGRFTISRVNAKNTVYLQMNSLKPEDTAVDYCAADYYYGAWDGYGDEKYYYWGQGTQVTVSS”, the “polyreactivity (PSR sort gate)” value was “low polyreactivity”.

For “QVLLQESGGGLVQAGGSLRLGCAASGTISPAYYMGRYHHAPGKEREFVAAITYGTNTYYADSVKGRFTISRDNAKNTVNLQMNSLKPADTAVYYCSATAGYNGAHDYWGQGTQVTVSS”, the “polyreactivity (PSR sort gate)” value is “low polyreactivity”. For the sequence “QVLLQESGGGLVQAGGSLRLSCAASGSIFLFYTMGWYRQAPVKEREFVAGITLGTTTYNADSVKGRFTISRDNVKNTLYLQMNSLKPEDTAVYYCAVAVGHYTEFWYWGQGTQVTMSS”, the “polyreactivity (PSR sort gate)” value was “high polyreactivity”. “QVLLQESGGGLVQAVGSLRLGCAASGTISPAYDIGRNHLAPGREREFVAAMTYGTNSYYSDSVKGRFTMSRDNAKNTVFLKMTSLKTEDTAVFYFSATGGYNCAHDYWGQGTQVTVSS”: the “polyreactivity (PSR sort gate)” value is listed as “low polyreactivity”.

Turning to “QVLLVESGGGLVQAAGSLRLSCAASGSISIGYTMGWYIQAPGKERELVATISWSGGNTYYADSVKWRFTISRDNAKNTVYLQMNRLKPEDTAVYYCAAKSSTRGDYWGQGTQVTVSS”, the “polyreactivity (PSR sort gate)” value is “low polyreactivity”. “QVLLVESGGGLVQAGGSHRLSCAASGFIFWDYAKGGYRQAPGKERELVAAITSGGGSTYYADSVKGRFTISRDNAKNTVYLQMNSLKPEDTAVYYCNAVSWEGYDFDYWGQGTQVTVSS”: the “polyreactivity (PSR sort gate)” value was “high polyreactivity”.
